The text below walks through data of article PMC7897471.

The target of assay [1] is [Alexa488]-QnrB1 (QnrB1-His, N-terminally labelled with AlexaFluor 488). The assay is described as follows: fluorescence polarisation; fluorescence anisotropy; 50 nM Alexa488-labelled QnrB1 mixed with gyrase subunit(s) in EMSA buffer (30 mM Tris-Cl pH 7.5, 75 mM KCl, 6% glycerol, 2 mM MgCl2, 1 mM DTT), 10 min at room temperature; one site specific binding fit.
Assay [2] has as its target Gyrase (Escherichia coli) (UniProt P0AES4). Particulars: cited from earlier work.
In assay [3] the target is E. coli DNA gyrase A2B2 complex (E. coli) (UniProt P0AES4). As to the kind of experiment: native gel or EMSA; 20 nM 147 bp pBR322 dsDNA fragment with 0.2 μM reconstituted gyrase in EMSA buffer, QnrB1 added as indicated; 30 min at 25°C; 6% polyacrylamide gel in TBM; IC50 = QnrB1 concentration that halves the bound DNA.
Assay [4] concerns the target GyrB 43 kDa domain (GyrB43), N-terminal ATPase-transducer domain of E. coli GyrB (E. coli).
The target in assay [5] is E. coli DNA gyrase A2B2 complex (E. coli) (UniProt P0AES4).
Assay [6] addresses E. coli DNA gyrase subunit B, full-length untagged (E. coli) (UniProt P0AES6).
For assay [7], the target named is GyrB 43 kDa domain (GyrB43), N-terminal ATPase-transducer domain of E. coli GyrB (E. coli). This is another data set of the same source.
Assay [8] addresses [Alexa488]-QnrB1 (QnrB1-His, N-terminally labelled with AlexaFluor 488). The assay is described as follows: fluorescence polarisation; as a1 but subunits with 1 mM ADPNP, incubated for an additional 1 h at room temperature with addition of 2 mM MgCl2.

With “E. coli DNA gyrase subunit A, full-length untagged (from UniProt P0AES4 1-875) (natural protein)”, in assay [1], the Kd was found to be 3.9 µM.
As to YacG (from UniProt C4ZRJ5), in assay [2], the Ki is 0.035 µM.
For “QnrB1 with a C-terminal 6xHis tag (wild type, unlabelled) (natural protein)”, the IC50 in assay [3] is 10.9 µM. The same substance showed an ATPase reaction rate of 4 μM GyrB43 with 5 μM QnrB1 against no QnrB1 in assay [4] of 17 fold. The substance further displayed a DNA-independent ATP hydrolysis rate of 50 nM gyrase (A2B2) with 5 μM QnrB1 in assay [5] of 3 fold. The ATPase activity of the full-length GyrB subunit with QnrB1 (not shown) in assay [6] is under 2 fold. Also, the QnrB1-dependent activation of GyrB43 ATPase activity (4 μM GyrB43, 1 mM ATP), Km for QnrB1 of a Michaelis-Menten fit in assay [7] worked out at 3.61 µM.
Consider “GyrB 43 kDa domain (GyrB43), N-terminal ATPase-transducer domain of E. coli GyrB (domain or fragment)”, for which the Kd in assay [8] was found to be 12.2 µM; in assay [1] it was 1.77 µM.
As to “E. coli DNA gyrase A2B2 complex (from UniProt P0AES4 1-875; P0AES6 1-804)”, the Kd was determined as 1.78 µM in assay [8] and 0.08 µM in assay [1].
The like results for “E. coli DNA gyrase subunit B, full-length untagged (from UniProt P0AES6 1-804) (natural protein)” were, in that order, 3.8 µM and 2.53 µM.
